Molecular target: T1, 150 kDa C-terminal fragment of wild-type GAS57 (Streptococcus pyogenes (M1 SF370))
T1 construct: also called 150 kDa fragment; 150.5 kDa fragment
T1 chain: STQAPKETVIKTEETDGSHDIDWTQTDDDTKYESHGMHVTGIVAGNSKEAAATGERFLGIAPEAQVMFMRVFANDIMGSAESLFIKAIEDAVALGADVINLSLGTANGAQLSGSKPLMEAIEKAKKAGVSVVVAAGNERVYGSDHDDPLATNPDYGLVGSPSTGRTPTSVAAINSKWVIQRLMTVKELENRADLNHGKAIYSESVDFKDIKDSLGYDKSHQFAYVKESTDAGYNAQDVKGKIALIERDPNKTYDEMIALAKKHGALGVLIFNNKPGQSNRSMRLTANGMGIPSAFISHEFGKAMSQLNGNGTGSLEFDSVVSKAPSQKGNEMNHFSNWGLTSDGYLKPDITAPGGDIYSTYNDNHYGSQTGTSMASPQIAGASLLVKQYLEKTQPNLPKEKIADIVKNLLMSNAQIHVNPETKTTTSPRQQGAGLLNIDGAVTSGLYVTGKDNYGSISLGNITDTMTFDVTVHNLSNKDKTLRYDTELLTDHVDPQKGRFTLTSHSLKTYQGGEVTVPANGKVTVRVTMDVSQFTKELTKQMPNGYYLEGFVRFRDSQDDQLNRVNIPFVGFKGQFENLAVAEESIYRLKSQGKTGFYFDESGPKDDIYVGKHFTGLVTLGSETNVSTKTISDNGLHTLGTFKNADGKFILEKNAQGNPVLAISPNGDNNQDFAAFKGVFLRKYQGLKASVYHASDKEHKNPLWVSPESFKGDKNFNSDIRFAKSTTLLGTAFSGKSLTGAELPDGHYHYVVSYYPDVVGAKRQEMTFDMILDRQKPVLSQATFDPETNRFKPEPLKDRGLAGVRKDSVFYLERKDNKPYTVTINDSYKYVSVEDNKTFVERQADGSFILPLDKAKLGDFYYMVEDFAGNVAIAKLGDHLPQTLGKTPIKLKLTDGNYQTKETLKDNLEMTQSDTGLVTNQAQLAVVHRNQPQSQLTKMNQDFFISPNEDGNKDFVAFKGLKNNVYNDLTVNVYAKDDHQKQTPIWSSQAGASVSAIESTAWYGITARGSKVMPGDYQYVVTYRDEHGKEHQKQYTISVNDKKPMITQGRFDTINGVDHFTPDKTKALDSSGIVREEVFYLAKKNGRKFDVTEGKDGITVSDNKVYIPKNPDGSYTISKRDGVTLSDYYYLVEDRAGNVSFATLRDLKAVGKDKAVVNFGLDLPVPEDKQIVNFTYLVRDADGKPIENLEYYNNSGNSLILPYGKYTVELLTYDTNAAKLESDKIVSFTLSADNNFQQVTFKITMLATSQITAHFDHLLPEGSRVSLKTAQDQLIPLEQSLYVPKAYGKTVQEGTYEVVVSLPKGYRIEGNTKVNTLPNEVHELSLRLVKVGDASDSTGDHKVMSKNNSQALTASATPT
Assay: co-purification on Ni-chelating affinity column and gel filtration; SDS-PAGE

B1: 23 kDa N-terminal fragment of wild-type GAS57 (other)
chain: ADELSTMSEPTITNHAQQQAQHLTNTELSSAESKSQDTSQITLKTNREKEQSQDLVSEPTTTELADTDAASMANTGSDATQKSASLPPVNTDVHDWVKTKGAWDKGYKGQGKVVAVIDTGIDPAHQSMRISDVSTAKVKSKEDMLARQKAAGINYGSWINDKVVFAHNYVENSDNIKENQFEDFDEDWENFEFDAEAEPKAIKKHKIYRPQ
notes: also called 23 kDa fragment; 23.4 kDa fragment
- binding result: binds
